Numbering of substitutions follows the chain as printed. Numbers in names are those of the source.

One may read the stoichiometry N as the number of molecules, sites or subunits per partner or assembly.

This series deals with the molecule itself. The experiment in a line: native gel or EMSA. A general note: A gel shift assay detects complexes by their altered migration in electrophoresis.

B1: FadD13 mutant A302G, N-terminal 6x histidine tagged (enzyme)
chain: MKNIGWMLRQRATVSPRLQAYVEPSTDVRMTYAQMNALANRCADVLTALGIAKGDRVALLMPNSVEFCCLFYGAAKLGAVAVPINTRLAAPEVSFILSDSGSKVVIYGAPSAPVIDAIRAQADPPGTVTDWIGADSLAERLRSAAADEPAVECGGDDNLFIMYTSGTTGHPKGVVHTHESVHSAASSWASTIDVRYRDRLLLPLPMFHVAALTTVIFSAMRGVTLISMPQFDATKVWSLIVEERVCIGGAVPAILNFMRQVPEFAELDAPDFRYFITGGAPMPEALIKIYAAKNIEVVQGYGLTESCGGGTLLLSEDALRKAGSAGRATMFTDVAVRGDDGVIREHGEGEVVIKSDILLKEYWNRPEATRDAFDNGWFRTGDIGEIDDEGYLYIKDRLKDMIISGGENVYPAEIESVIIGVPGVSEVAVIGLPDEKWGEIAAAIVVADQNEVSEQQIVEYCGTRLARYKLPKKVIFAEAIPRNPTGKILKTVLREQYSATVPK
notes: not shown: His6, N-terminal, kept
Regarding B1, the “stoichiometry N” value came to 2.

B2: FadD13 mutant D382A, N-terminal 6x histidine tagged (enzyme)
chain: B1 chain with G302A, D382A
notes: as for B1
As to B2, the binding result is given as “binds”.

Values taken from PMC2793005, “Dissecting the Role of Critical Residues and Substrate Preference of a Fatty Acyl-CoA Synthetase (FadD13) of Mycobacterium tuberculosis” (PLoS ONE, 2009).
